From the nanobody polyreactivity screen of Harvey et al. (2022)

assay: yeast display, Sf9 membrane polyspecificity reagent, FACS + sequencing; frameworks hold sequencing errors
Summary of the method: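 Sorting gates, low and high (top ~1%), were placed on anti-HA fluorescence to track expression and on streptavidin fluorescence to track reagent binding. A clone's polyreactivity label is taken from the gate it came out of. The reagent was 10% biotinylated, detergent-solubilized Sf9 membrane, applied for 1 hour at 4 °C to galactose-induced yeast display cells.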

Sequence	polyreactivity (PSR sort gate)
QVQLQDSGGGLVQAVGSQRMSCAASGYIFYFQYMGWYRQAPGKEREFVAAISDGANTNYADSVKGRFTISRDNAKNTEYLQMYCLKPEDTAVYYCAVYADENYYYIYWGQGTQVTVSS	low polyreactivity
QVQLQECGGGLVQAGGSLRLSCAASGNIFDADIMGWYRQAPGKERELVASVTDGGSTNYADSVKGRFTISRDNAKITVYLQLNSLKPEDTAVYYCAAIVYPDILTDFDYDYDYFYWGQGTQVTVGS	low polyreactivity
QVQLQEGGGGLVQAGGSLRLSCAASGYISYGDVMGWYRQAPGEERELVASIGLDATTNYADSVKGRFTISRDNAKITVYLQMNSLKPEDTAVYYCAADVGSGVLCGYWGQGTQMTVSS	high polyreactivity
QVQLQEIGGCLVQAGDSHRLSCAASGNIFPFTDMGWNRQAQGKERELVAAINAGSTTYYADSVKGRFTISRDNAKITVYLQLISLKPEDTAVYYCAVYYLGSGTFCYWGQGPQVTVSS	high polyreactivity
QVQLQEIGGGLVQAGGSLRLSCAASGYISLAKTIGLSRQAPGKEREFVASIALGSSTYYTDSVKGSFTISRDNAKTTVYLQMNRLKPEDTAVYYCAARVGASYAHDYGGQGTQVTVSS	low polyreactivity
QVQLQENGGGLVQAGGSLRLSCAASGTILYSLGMGWYRQAPGKRREFVASITWGTTTNYAESVKGRFTISRDNAKNSVYPQMNSLKPEDTAVYYCAAPPFGDSSYHYWGQGTQVTVSS	low polyreactivity
QVQLQERAAWCRRAGSLRLSCAASGNISDYYFMGWYRQAPGKERELVAAIAPGSNTYYADSVKGRFTISRDNAKNTVYLQMNSLKPEDTAVCFCGANSTQYTWFDYWGQGTQVPVSS	low polyreactivity
QVQLQERGGGLMQAGGSQRLSCAASGSISYYSDMGWYRQAPGTEREFVAGIGYGTTTNYADSVKGRFTTSRDNAKNTVDLQMISMKPEDTAVYYCAAYQGNGYEFYYWGQGTQVTVRS	low polyreactivity
QVQLQERGGGLVQAGGSLRLSCAASCTIFRFRYMGWHRQAPGKERELVAGINGGTTTYYADSVIGRFTISRDNAKNTLYLQMNSLKPDDTAVYNCAAVASRLTYYDYWGQGTQVTVSS	low polyreactivity
QVQLQERGGGLVQAGGSLRLSCAASGNIFEADIMGWYHQAQGKDRELVASITDGGSTNYADSVKGRFTINRDNAKNKVSRQMNSLKPEDTALYYCAAYGNARLKEHYYWGQGTQVTVSS	high polyreactivity
QVQLQERGGVLVQAGGSLRLSCAASGTISYAPHMGWYRQATGKERELVAGITIGGTTYYADSVKGRFTISRDNAIHTVYLHMNSLCRGDTAVYFFAAHSEQYTPFYYWGQGTQLTVSS	low polyreactivity
QVQLQESAGGLVQAGGSLRLRCSASGYISCDASMGWYRQAAGKERELAASITKGSSTNYADSVKGRFTIRDNAKNTVYLQMNSLKPEDTAVCYCAVTYPYWGDYTYWGQGTQVTVSS	low polyreactivity
QVQLQESGAGLVQAGGSLRLSCAASGSISAVGAMCWYRQAPGKEREFAASVNWATNTNYADSVKGRFTISRDNAKNTLYLQMNSLKPEDTAVYYCAVLPDWETRHDYWGHGTQVTVSS	low polyreactivity
QVQLQESGCGLVQAGGSLRLTCAASGSISYPRTMGWSRQAPGKEREFVAGIGVGGTTYYADSVIGRFTISRDNAKNTVYLQMNSLKPEDTAVYYCAVYSGDDYYHDYWGQGTQVTVSS	low polyreactivity
QVQLQESGCGLVQVGGSLRLSCAASGTTFIYGFLGWNRQAPGKERELVASINLGGFTNYADSVKGRFTISRDNAKNTVYLQMISLNPEDSAVFYCAAYVVTGQNYGYWGKGTQVTVSS	low polyreactivity
QVQLQESGDGLVQAGGSLRLSCAASGNIYDADIMGWYRQAPGKERELVTSITDGGSTNYADSVKGRFTISRDNAKNTVYLQMNSLKPEDTAVYYCAAIAYPDIPTSFDYNSDYSYWGQGTQVTVSS	low polyreactivity
QVQLQESGGDLEQAGGSLRLSCTASGTNSDVRVMGWYRQAPGKERELVATISYVTITYYADSVKGRLTISRDSEKHRVSADDEPETGRYRGVLLRYYWGLGTQVTVSS	low polyreactivity
